Test results reported in patent publication US20050148763A1, “Peg-binding pth or peg-binding pth derivative” (Chugai Seiyaku Kabushiki Kaisha, priority 2002, published 2005).

Assays:
[1] = Pharmacokinetics in rats by intravenous route; format: in vivo; settings: 80 μg/mL at 1 mL/kg
Experimental: (§1) Each sample was adjusted to 80 μg/mL by dilution with 25 mmol/L citrate-phosphate buffer (pH 5.0) containing 100 mmol/L NaCl and 0.05 vol % Tween 20 to give a solution for administration. Male SD rats at 6 weeks of age (CLEA Japan, Inc.) were provided for this experiment. Intravenous injection was performed on rats having polyethylene tubes (SP-31, Natsume Seisakusho Co., Ltd.) inserted into the femoral artery and vein. The solutions thus prepared were each administered at a dose of 1 mL/kg through a polyethylene tube inserted into the femoral vein, and blood was collected through a polyethylene tube inserted into the femoral artery before administration and at 5, 15, 30 and 45 minutes as well as 1, 2, 4, 6, 8 and 24 hours after administration. Subcutaneous administration was performed on rats having polyethylene tubes inserted into the femoral artery. The solutions prepared above were each subcutaneously administered at a dose of 1 mL/kg to the dorsal neck region of the rats, and blood was collected in the same manner as used for intravenous injection. These blood samples were centrifuged to collect plasma and stored at −40° C. until assayed for PTH(1-34) or PEG-PTH(1-34) levels.
(§2) The level of PTH(1-34) or PEG-PTH(1-34) was determined by RIA analysis using a Rat PTH IRMA Kit (Immutopics). A Cobra Quantum Model 5005 gamma counter (Packard) was used to measure radioactivity for each sample. The plasma level of PTH(1-34) or PEG-PTH(1-34) was calculated from a calibration curve prepared using PTH(1-34) or PEG-PTH(1-34). The Winnonlin program Ver. 2.1 (Scientific Consulting Inc.) was used to analyze the time course of changes in the calculated plasma PTH(1-34) or PEG-PTH(1-34) levels (FIG. 3: by intravenous route; FIG. 4: by subcutaneous route) to calculate the following as pharmacokinetic parameters: time required to reach the maximum plasma level (Tmax); maximum plasma level (Cmax); area under the curve of plasma levels (AUC); plasma half-life (t1/2); total body clearance (Cltotal); mean residence time in the body (MRT); and bioavailability (BA). […]

[2] = Pharmacokinetics and bioavailability in rats by subcutaneous route; format: in vivo; settings: for BA: subcutaneous route
Experimental: as §1, §2

[3] = Hypercalcemic effect of PEG-PTH(1-34) in normal male BDF1 mice; format: in vivo
Experimental: 2 k and 5 k PEG-PTH(1-34) were also adjusted similarly to 30 nmol/mL (calculated as PTH) and allowed to stand on ice immediately before administration.
Male BDF1 mice at 5 weeks of age (Charles River Japan, Inc.) were measured for their body weight. Immediately before drug administration, blood was collected by orbital puncture into heparinized capillary tubes and measured for baseline levels of blood ionized calcium and pH using a Ca^2+/pH analyzer (Model 348/Bayer Medical Ltd.) to give the corrected level of ionized calcium at pH 7.4 for each sample. The mice received subcutaneous administration of each drug at a dose of 5 mL/kg. […] At 1, 3 and 6 hours after administration, blood was collected by orbital puncture to monitor the time course of corrected blood ionized calcium levels.

human PTH1 receptors [4] = biological target: T1, human PTH1 receptors (Homo sapiens, UniProt Q03431); experiment: in vitro ability to produce cAMP, HKRK-B7 cells; format: cell-based; settings: Table 2(1), n=2-3
T1 construct: expressed in transfected cells; host or cells: HKRK-B7 and HKRK-B64 cells (derived from pig kidney LLC-PK1 cells)
T1 sequence (Q03431 27-593): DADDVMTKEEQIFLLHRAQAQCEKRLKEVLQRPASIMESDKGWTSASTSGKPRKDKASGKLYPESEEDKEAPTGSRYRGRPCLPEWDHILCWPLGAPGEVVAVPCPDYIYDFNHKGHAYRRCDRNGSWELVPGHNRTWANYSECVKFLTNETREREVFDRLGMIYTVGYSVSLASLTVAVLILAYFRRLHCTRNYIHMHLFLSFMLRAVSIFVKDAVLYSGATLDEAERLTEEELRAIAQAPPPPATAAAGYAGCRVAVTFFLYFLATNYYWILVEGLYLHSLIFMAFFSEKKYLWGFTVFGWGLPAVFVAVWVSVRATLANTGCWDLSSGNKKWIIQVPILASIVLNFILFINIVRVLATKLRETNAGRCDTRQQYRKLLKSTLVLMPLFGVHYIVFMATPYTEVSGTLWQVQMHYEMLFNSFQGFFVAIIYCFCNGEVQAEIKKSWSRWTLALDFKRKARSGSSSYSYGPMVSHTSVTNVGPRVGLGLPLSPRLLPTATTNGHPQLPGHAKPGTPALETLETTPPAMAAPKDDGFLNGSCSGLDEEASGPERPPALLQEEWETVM
Experimental: (§3) Each PEG-PTH sample was assayed for its ability to produce cAMP (indicative of the increasing effect of PTH on bone mass) as follows. […] These cells were seeded in 96-well plates at 1×10^5 cells/well and incubated overnight. […] After removing the reaction solution, the plates were placed on powdered dry ice to freeze the cells and then removed from the dry ice. The cells were thawed with 50 μL of 50 mM HCl and frozen again on dry ice. The level of intracellular cAMP was determined with a commercially available EIA kit (Biotrak cAMP EIA system, Amersham).

human PTH1 receptors [5] = biological target: T1, human PTH1 receptors; experiment: in vitro ability to produce cAMP, HKRK-B64 cells; format: cell-based; settings: Table 2(2), n=2-3
Experimental: Each PEG-PTH sample was assayed for its ability to produce cAMP (indicative of the increasing effect of PTH on bone mass) as follows. HKRK-B7 and HKRK-B64 cells, genetically modified from pig kidney-derived LLC-PK1 cells to overexpress human PTH1 receptors at levels of about 1×10^6 and 9×10^4 receptors per cell, respectively, as well as EW29 cells expressing about 1.9×10^5 rat PTH1 receptors per cell (Takasu et al., J. Bone. Miner. Res. 14: 11-20, 1999) were grown in DMEM supplemented with 10% FBS, 1% penicillin and 1% streptomycin. These cells were seeded in 96-well plates at 1×10^5 cells/well and incubated overnight. On the following day, the cells were washed once with 200 μL binding buffer (50 mM Tris-HCl/100 mM NaCl/5 mM KCl/2 mM CaCl2/5% inactivated horse serum/0.5% inactivated bovine serum, pH 7.7), followed by addition of 100 μL cAMP assay buffer (DMEM/2 mM 3-isobutyl-1-methylxanthine/1 mg/mL bovine serum albumin/35 mM HEPES-NaOH, pH 7.4) on ice. […] After removing the reaction solution, the plates were placed on powdered dry ice to freeze the cells and then removed from the dry ice. The cells were thawed with 50 μL of 50 mM HCl and frozen again on dry ice. The level of intracellular cAMP was determined with a commercially available EIA kit (Biotrak cAMP EIA system, Amersham).

rat PTH1 receptors = biological target: T2, rat PTH1 receptors (Rattus norvegicus, UniProt P25961); experiment: in vitro ability to produce cAMP, EW29 cells; format: cell-based; settings: Table 2(3), n=2-3
T2 construct: expressed in transfected cells; host or cells: EW29 cells
T2 sequence (P25961 27-591): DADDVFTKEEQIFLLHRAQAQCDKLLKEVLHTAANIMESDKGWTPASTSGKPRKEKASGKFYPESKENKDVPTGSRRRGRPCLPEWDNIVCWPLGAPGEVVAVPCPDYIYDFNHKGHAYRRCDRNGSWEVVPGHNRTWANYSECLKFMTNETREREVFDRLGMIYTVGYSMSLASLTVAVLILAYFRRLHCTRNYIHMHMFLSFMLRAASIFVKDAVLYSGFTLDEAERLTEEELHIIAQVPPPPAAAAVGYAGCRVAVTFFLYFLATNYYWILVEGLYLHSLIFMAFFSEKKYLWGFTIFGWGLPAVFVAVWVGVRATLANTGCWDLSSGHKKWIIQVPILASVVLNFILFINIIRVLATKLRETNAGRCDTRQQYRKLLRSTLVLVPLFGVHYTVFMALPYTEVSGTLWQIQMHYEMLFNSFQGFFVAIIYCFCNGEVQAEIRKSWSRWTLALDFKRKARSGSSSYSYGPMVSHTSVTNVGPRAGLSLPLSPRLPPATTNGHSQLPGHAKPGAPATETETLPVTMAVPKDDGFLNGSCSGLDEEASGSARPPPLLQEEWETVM
Experimental: as §3

[6] = Hypercalcemic effect of PEG-[Cys^35]-PTH(1-35) in normal female DDY mice; format: in vivo; settings: for Blood iCa level Hour 1: 1 hour after administration; for Blood iCa level Hour 3: 3 hours; for Blood iCa level Hour 6: 6 hours; for Blood iCa level Hour 9: 9 hours; for Blood iCa level Hour 24: 24 hours; for Blood iCa level Hour 0: before administration; for hypercalcemic effect (in words): female DDY mice, sc, 10-150 nmol/kg
Experimental: 2 k, 5 k and 20 k PEG-[Cys^35]-PTH(1-35) were also adjusted similarly to 30, 10 and 2 nmol/mL (calculated as PTH) and allowed to stand on ice immediately before administration.
Using female DDY mice at 6 weeks of age (Japan SLC, Inc.), the corrected level of ionized calcium at pH 7.4 was determined for each sample in the same manner as shown in (1) above. The mice received subcutaneous administration of each drug at a dose of 5 mL/kg. The buffer was administered to a group of 5 mice. […] 150 nmol/kg 2 k, 5 k and 20 k PEG-[Cys^35]-PTH(1-35) were administered to groups of 4 mice each. 50 and 10 nmol/kg 2 k, 5 k and 20 k PEG-[Cys^35]-PTH(1-35) were administered to groups of 5 mice each. At 1, 3, 6, 9 and 24 hours after administration, blood was collected by orbital puncture to monitor the time course of corrected blood ionized calcium levels.

[7] = subcutaneous, 80 μg/mL at 1 mL/kg

2k PEG-hPTH(1-34): hPTH(1-34) reacted with mPEG 2 k-SPA, fraction having one 2 kDa PEG molecule per PTH molecule
AUC [1]: 95.781 ng·h/mL | Cltotal [1]: 14.03 mL/min/kg | MRT [1]: 0.465 h | t ½ [1]: 1.128 h | BA ([2]; listed as 2 k PEG-PTH (1-34)): 56.1% | BA ([2]; listed as 2 k PEG-PTH(1-34)): about 56.1% | AUC [2, 7]: 53.78 ng·h/mL | MRT [2, 7]: 1.684 h | Tmax [2, 7]: 0.300 h | t ½ [2, 7]: 1.231 h | increase in blood ionized calcium levels (in words) ([3]; 150 nmol/kg sc): almost the same increase in ionized calcium levels as observed with 500 nmol/kg hPTH(1-34) | increased blood ionized calcium level maintained until ([3]; 150 nmol/kg sc): 3 h | time of maximum increase in blood ionized calcium levels after administration ([3]; sc, hPTH(1-34) 50-500 nmol/kg, PEG-PTHs 150 nmol/kg): one

20 k PEG-[Cys^35]-hPTH(1-35): [Cys^35]-hPTH(1-35) conjugated with 20 kDa PEG (SVSEIQLMHNLGKHLNSMERVEWLRKKLQDVHNFC; Parathyroid hormone 20 kDa PEG at Cys35; UniProt P01270 32-66, looked up, variant V35C)
Maximum cAMP response (human PTH1 receptors [4]): 131.1 ± 7.5 pmol/well | EC50 (human PTH1 receptors [4]; cAMP production): 2.7 nM | Maximum cAMP response (human PTH1 receptors [5]): 79.6 ± 14.6 pmol/well | EC50 (human PTH1 receptors [5]; cAMP production): 8 nM | Maximum cAMP response (rat PTH1 receptors): 59.4 ± 12.9 pmol/well | EC50 (rat PTH1 receptors; cAMP production): 9.1 nM | Blood iCa level Hour 1 ([6]; 10 nmol/kg sc): 1.39 ± 0.03 mM | Blood iCa level Hour 3 ([6]; 10 nmol/kg sc): 1.51 ± 0.01 mM | Blood iCa level Hour 6 ([6]; 10 nmol/kg sc): 1.48 ± 0.05 mM | Blood iCa level Hour 9 ([6]; 10 nmol/kg sc): 1.43 ± 0.05 mM | Blood iCa level Hour 24 ([6]; 10 nmol/kg sc): 1.78 ± 0.09 mM | Blood iCa level Hour 0 ([6]; 10 nmol/kg sc): 1.27 ± 0.04 mM | Blood iCa level Hour 1 ([6]; 50 nmol/kg sc): 1.44 ± 0.03 mM | Blood iCa level Hour 3 ([6]; 50 nmol/kg sc): 1.53 ± 0.02 mM | Blood iCa level Hour 6 ([6]; 50 nmol/kg sc): 1.51 ± 0.03 mM | Blood iCa level Hour 9 ([6]; 50 nmol/kg sc): 1.44 ± 0.06 mM | Blood iCa level Hour 24 ([6]; 50 nmol/kg sc): 2.44 ± 0.12 mM | Blood iCa level Hour 0 ([6]; 50 nmol/kg sc): 1.30 ± 0.04 mM | Blood iCa level Hour 1 ([6]; 150 nmol/kg sc): 1.42 ± 0.02 mM | Blood iCa level Hour 3 ([6]; 150 nmol/kg sc): 1.54 ± 0.02 mM | Blood iCa level Hour 6 ([6]; 150 nmol/kg sc): 1.55 ± 0.03 mM | Blood iCa level Hour 9 ([6]; 150 nmol/kg sc): 1.43 ± 0.06 mM | Blood iCa level Hour 24 ([6]; 150 nmol/kg sc): 2.71 ± 0.19 mM | Blood iCa level Hour 0 ([6]; 150 nmol/kg sc): 1.30 ± 0.02 mM | hypercalcemic effect (in words) ([6]; listed as 20 k PEG-(Cys^35]-PTH(1-35)): very high blood ionized calcium levels at all tested doses | hypercalcemic effect (in words) ([6]; listed as 20 k PEG-[Cys^35]-PTH (1-35)): maintained a significantly higher level than that of the buffer group even at 9 hours after administration
